Measured values published in paper PMC4957108, “Impact of structural polymorphism for the Helicobacter pylori CagA oncoprotein on binding to polarity-regulating kinase PAR1b” (Scientific Reports, 2016).

What was measured:
Conditions in all cases: both partners purified
[1] = biological target: GST-CagA-2CM^W (Helicobacter pylori strain 26695, UniProt P55980 1-1186); assay: pull-down; quantitative GST pull-down: GST-CagA on beads in a range of concentrations, fixed low concentration of PAR1b (39–364)-FLAG, GST-binding buffer with 0.01% Triton-X, 20 min at 4 °C, unbound PAR1b in the supernatant quantified, binding to GST control subtracted; apparent KD
[2] = biological target: GST-CagA-4CM^W (Helicobacter pylori strain NCTC11637); assay: as above
[3] = biological target: T1, CagA-2CM^W (Helicobacter pylori strain 26695, UniProt P55980 1-1186); assay: SEC; Superdex 200 10/300 GL, HBS-P running buffer, 4 °C, 0.5 ml/min; CagA constructs alone or mixed with PAR1b (39–364) at a molar ratio of 1:1 or 1:2; fractions on SDS-PAGE, CBB bands quantified
T1 construct: also called canonical Western ABC type CagA
T1 sequence (looked up): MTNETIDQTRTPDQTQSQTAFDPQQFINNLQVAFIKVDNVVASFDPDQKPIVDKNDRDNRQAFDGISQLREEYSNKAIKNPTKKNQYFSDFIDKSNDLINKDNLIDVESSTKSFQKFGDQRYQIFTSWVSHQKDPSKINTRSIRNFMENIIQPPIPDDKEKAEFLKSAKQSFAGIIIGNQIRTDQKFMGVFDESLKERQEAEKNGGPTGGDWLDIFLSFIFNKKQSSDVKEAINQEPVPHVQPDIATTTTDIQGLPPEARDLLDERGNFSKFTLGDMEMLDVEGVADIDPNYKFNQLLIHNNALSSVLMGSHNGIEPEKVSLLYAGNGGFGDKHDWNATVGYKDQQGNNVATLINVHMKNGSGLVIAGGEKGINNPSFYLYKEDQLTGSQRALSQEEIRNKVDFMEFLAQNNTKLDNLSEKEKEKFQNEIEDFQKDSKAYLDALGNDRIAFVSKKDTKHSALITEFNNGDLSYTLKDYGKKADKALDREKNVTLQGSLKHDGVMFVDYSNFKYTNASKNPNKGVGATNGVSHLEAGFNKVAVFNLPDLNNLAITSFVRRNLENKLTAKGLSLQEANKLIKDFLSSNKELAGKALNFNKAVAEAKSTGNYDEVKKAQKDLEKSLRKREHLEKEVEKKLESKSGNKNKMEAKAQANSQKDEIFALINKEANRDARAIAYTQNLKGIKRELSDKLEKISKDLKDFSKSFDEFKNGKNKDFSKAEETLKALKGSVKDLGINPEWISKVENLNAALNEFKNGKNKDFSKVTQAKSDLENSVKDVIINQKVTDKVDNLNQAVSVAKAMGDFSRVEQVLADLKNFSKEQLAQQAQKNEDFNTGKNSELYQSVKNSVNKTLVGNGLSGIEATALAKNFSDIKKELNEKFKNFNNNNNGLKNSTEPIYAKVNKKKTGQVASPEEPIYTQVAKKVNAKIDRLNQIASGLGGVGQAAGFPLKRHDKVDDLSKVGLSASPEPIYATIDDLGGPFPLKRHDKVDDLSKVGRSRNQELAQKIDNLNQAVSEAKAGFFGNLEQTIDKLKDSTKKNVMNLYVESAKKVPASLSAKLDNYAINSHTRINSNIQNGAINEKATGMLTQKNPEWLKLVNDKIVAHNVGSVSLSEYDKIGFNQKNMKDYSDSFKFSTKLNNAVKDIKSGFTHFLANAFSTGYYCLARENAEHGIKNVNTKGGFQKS

B1: PAR1b (39–364)-FLAG (domain or fragment)
chain: not shown
modifications: C-terminal FLAG-6xHis tag left out
For B1, the Kd [1] was 0.0266 µM.

B2: PAR1b (39–364)-FLAG (domain or fragment)
chain: not shown
Binder B2 has a Kd [2] of 0.00243 µM.

B3: PAR1b (39–364) (domain or fragment)
chain: not shown
modifications: C-terminal 6xHis tag left out
In the case of B3, the “stoichiometry N” value [3] is reported as 2 PAR1b per CagA.
